Experimental data reported in article PMC3904261 (British Journal of Pharmacology, 2013).
“And” between values parts separate entries of the source, which are not always exact repeats. Equal values may be shown once. Blank lines part the entries; values can stand above or below the molecule they belong to. Bridge positions count the residues as written; N and C are the ends. Ends that are not written are not given here.

How the values were obtained:
AMY1(a) receptor = target: T1, AMY1(a) receptor (Homo sapiens, UniProt O60894+P30988); assay: cAMP production in Cos 7 cells via the AMY1(a) receptor; assay type: cell-based; conditions: AlphaScreen, means ± SEM
T1 construct: HA; expressed in transfected cells; host or cells: Cos 7
T1 sequence (P30988 25-474): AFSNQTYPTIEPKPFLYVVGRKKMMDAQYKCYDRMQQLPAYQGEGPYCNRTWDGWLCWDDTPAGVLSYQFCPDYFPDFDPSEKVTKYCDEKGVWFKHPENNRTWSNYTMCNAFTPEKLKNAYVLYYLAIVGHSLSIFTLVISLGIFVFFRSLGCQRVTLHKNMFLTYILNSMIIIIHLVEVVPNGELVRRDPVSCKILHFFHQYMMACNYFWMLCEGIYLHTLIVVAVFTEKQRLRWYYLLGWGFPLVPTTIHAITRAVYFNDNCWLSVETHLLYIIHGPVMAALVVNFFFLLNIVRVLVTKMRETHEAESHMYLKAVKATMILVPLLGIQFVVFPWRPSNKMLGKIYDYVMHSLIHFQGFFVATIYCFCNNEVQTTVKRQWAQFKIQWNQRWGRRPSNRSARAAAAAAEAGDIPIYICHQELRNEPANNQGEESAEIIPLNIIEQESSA
T1 sequence (O60894 27-148): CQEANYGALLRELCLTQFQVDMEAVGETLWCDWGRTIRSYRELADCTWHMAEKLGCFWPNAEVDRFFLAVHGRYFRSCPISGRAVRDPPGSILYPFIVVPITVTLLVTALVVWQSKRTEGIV
Experimental: SK-N-MC cells were grown in DMEM/F12 medium supplemented with 10% fetal calf serum as described previously (Poyner et al., [1998]). […] Production of cAMP in SK-N-MC cells for all analogues except [[…]]-hαCGRP was by a radioreceptor assay, as described previously (Poyner et al., [1998]). […] For [[…]]-hαCGRP, a different clone of SK-N-MC cells was used and cAMP production was measured via AlphaScreen (Perkin Elmer, Wellesley, MA, USA), as described previously ([…] et al., [2010]). This assay was also used to investigate the action of all derivatives at the AMY1(a) receptor and other experiments using Cos 7 cells. […] GraphPad Prism 5.00 or 6.00 (GraphPad Software Inc., San Diego, CA, USA) was used for data fitting. Concentration-response curves were fitted to a sigmoidal function with Hill slope constrained to unity to obtain pEC50 and maximum responses (Emax) values. Displacement curves were analysed to obtain pIC50 values. Schild plots were fitted by linear regression to obtain slope and intercepts. pEC50 and pIC50 values were compared with that of human αCGRP using Dunnett's test with either a normal or repeated measures one-way ANOVA, as appropriate.

CGRP receptor [1] = target: T2, CGRP receptor (Homo sapiens, UniProt O60894+Q16602); assay: cAMP production in SK-N-MC cells; assay type: cell-based; design: relative expression levels of the receptors (endogenous vs. overexpressed); endogenous in cells; host or cells: SK-N-MC cells (ECACC clone; ATCC clone for [Cys5]-CGRP); conditions: for cAMP (SK-N-MC) Emax (% CGRP) CGRP analogue: radioreceptor assay, approx. 10 min, means ± SEM, n = 3–6
T2 sequence (Q16602 23-461): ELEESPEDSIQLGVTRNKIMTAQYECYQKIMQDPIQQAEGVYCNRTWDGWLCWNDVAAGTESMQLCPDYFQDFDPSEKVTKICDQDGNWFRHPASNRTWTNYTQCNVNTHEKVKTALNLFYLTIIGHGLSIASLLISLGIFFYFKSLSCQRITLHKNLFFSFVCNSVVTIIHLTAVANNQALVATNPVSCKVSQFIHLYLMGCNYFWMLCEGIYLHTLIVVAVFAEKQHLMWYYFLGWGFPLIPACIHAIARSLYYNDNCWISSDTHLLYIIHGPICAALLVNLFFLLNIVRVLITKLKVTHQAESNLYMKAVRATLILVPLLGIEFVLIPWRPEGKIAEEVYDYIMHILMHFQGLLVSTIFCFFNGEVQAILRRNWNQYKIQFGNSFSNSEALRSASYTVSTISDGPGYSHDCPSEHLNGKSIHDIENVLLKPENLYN
T2 sequence (O60894 27-148): as the sequence (O60894 27-148) above
Experimental: Production of cAMP in SK-N-MC cells for all analogues except [[…]]-hαCGRP was by a radioreceptor assay, as described previously (Poyner et al., [1998]). […] For [[…]]-hαCGRP, a different clone of SK-N-MC cells was used and cAMP production was measured via AlphaScreen (Perkin Elmer, Wellesley, MA, USA), as described previously ([…] et al., [2010]). This assay was also used to investigate the action of all derivatives at the AMY1(a) receptor and other experiments using Cos 7 cells. […] GraphPad Prism 5.00 or 6.00 (GraphPad Software Inc., San Diego, CA, USA) was used for data fitting. Concentration-response curves were fitted to a sigmoidal function with Hill slope constrained to unity to obtain pEC50 and maximum responses (Emax) values. Displacement curves were analysed to obtain pIC50 values. Schild plots were fitted by linear regression to obtain slope and intercepts. pEC50 and pIC50 values were compared with that of human αCGRP using Dunnett's test with either a normal or repeated measures one-way ANOVA, as appropriate.

CGRP receptor [2] = target: T2, CGRP receptor; assay: β-arrestin 2 translocation in CHO-K1 cells (PathHunter eXpress); assay type: cell-based; design: host or cells: CHO-K1 (PathHunter eXpress β-arrestin kit); conditions: for β-Arrestin (CHO-K1) Emax (% CGRP) CGRP analogue: 2 h stimulation, means ± SEM, n = 3; for reduction of Emax, β-arrestin 2 translocation: CHO-K1 cells, compared with CGRP
Experimental: GraphPad Prism 5.00 or 6.00 (GraphPad Software Inc., San Diego, CA, USA) was used for data fitting. Concentration–response curves were fitted to a sigmoidal function with Hill slope constrained to unity to obtain pEC50 and maximum responses (Emax) values. Displacement curves were analysed to obtain pIC50 values. Schild plots were fitted by linear regression to obtain slope and intercepts. pEC50 and pIC50 values were compared with that of human αCGRP using Dunnett's test with either a normal or repeated measures one-way ANOVA, as appropriate.

[3] = target: T3, CGRP receptor (calcitonin receptor-like receptor in complex with receptor activity-modifying protein 1) (human (endogenous in SK-N-MC), UniProt Q16602 23-461; O60894 27-148); assay: radioligand binding; displacement of ^125I-CGRP from SK-N-MC cell membranes by unlabelled peptides, microcentrifugation-based binding assay; [Cys^5]-CGRP and its control on another batch of SK-N-MC cells; conditions: one partner purified
T3 sequence (Q16602 23-461, chain 1 of 2): as the sequence (Q16602 23-461) above
T3 sequence (O60894 27-148, chain 2 of 2): as the sequence (O60894 27-148) above

[4] = target: T3, CGRP receptor (calcitonin receptor-like …); assay: cell-based or functional assay
[5] = target: AMY_(1(a)) receptor (human HA-tagged CT (a) receptor with human myc-tagged RAMP1) (human) (UniProt O60894)
Chain of AMY_(1(a)) receptor (human HA-tagged CT (a) receptor with human myc-tagged RAMP1) (human) (O60894 whole entry, looked up): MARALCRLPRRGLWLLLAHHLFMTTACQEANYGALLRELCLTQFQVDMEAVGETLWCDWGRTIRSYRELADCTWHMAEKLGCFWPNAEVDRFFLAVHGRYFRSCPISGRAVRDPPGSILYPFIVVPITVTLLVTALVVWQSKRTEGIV

B2: [Asp^6]-CGRP (peptide)
chain: ACDTADCVTHRLAGLLSRSGGVVKNNFVPTNVGSKAF-NH2
modifications: disulfide 2-7
pKi [3]: 7.5

B3: [Ala^9]-CGRP (peptide)
chain: ACDTATCVAHRLAGLLSRSGGVVKNNFVPTNVGSKAF-NH2
modifications: disulfide 2-7; N-terminus assumed
SMILES: CC(C)C[C@H](NC(=O)CNC(=O)[C@H](C)NC(=O)[C@H](CC(C)C)NC(=O)[C@H](CCCNC(=N)N)NC(=O)[C@H](Cc1c[nH]cn1)NC(=O)[C@H](C)NC(=O)[C@@H](NC(=O)[C@@H]1CSSC[C@H](NC(=O)[C@H](C)N)C(=O)N[C@@H](CC(=O)O)C(=O)N[C@@H]([C@@H](C)O)C(=O)N[C@@H](C)C(=O)N[C@@H]([C@@H](C)O)C(=O)N1)C(C)C)C(=O)N[C@@H](CC(C)C)C(=O)N[C@@H](CO)C(=O)N[C@@H](CCCNC(=N)N)C(=O)N[C@@H](CO)C(=O)NCC(=O)NCC(=O)N[C@H](C(=O)N[C@H](C(=O)N[C@@H](CCCCN)C(=O)N[C@@H](CC(N)=O)C(=O)N[C@@H](CC(N)=O)C(=O)N[C@@H](Cc1ccccc1)C(=O)N[C@H](C(=O)N1CCC[C@H]1C(=O)N[C@H](C(=O)N[C@@H](CC(N)=O)C(=O)N[C@H](C(=O)NCC(=O)N[C@@H](CO)C(=O)N[C@@H](CCCCN)C(=O)N[C@@H](C)C(=O)N[C@@H](Cc1ccccc1)C(N)=O)C(C)C)[C@@H](C)O)C(C)C)C(C)C)C(C)C
Emax (% CGRP), cAMP production in SK-N-MC cells [4]: 103 % CGRP
Emax (% CGRP), β-arrestin 2 translocation in CHO-K1 cells expressing the human CGRP receptor [4]: 64 % CGRP
pEC50, cAMP production in SK-N-MC cells [4]: 7.3
pEC50, β-arrestin 2 translocation in CHO-K1 cells expressing the human CGRP receptor [4]: 8.23
Emax (% CGRP), cAMP production in Cos 7 cells with the AMY (1(a)) receptor [5]: 89 % CGRP
pEC50, cAMP production in Cos 7 cells with the AMY (1(a)) receptor [5]: 8.21

B5: [Ala^8]-CGRP (peptide)
chain: ACDTATCATHRLAGLLSRSGGVVKNNFVPTNVGSKAF-NH2
modifications: disulfide 2-7; N-terminus assumed
SMILES: CC(C)C[C@H](NC(=O)CNC(=O)[C@H](C)NC(=O)[C@H](CC(C)C)NC(=O)[C@H](CCCNC(=N)N)NC(=O)[C@H](Cc1c[nH]cn1)NC(=O)[C@@H](NC(=O)[C@H](C)NC(=O)[C@@H]1CSSC[C@H](NC(=O)[C@H](C)N)C(=O)N[C@@H](CC(=O)O)C(=O)N[C@@H]([C@@H](C)O)C(=O)N[C@@H](C)C(=O)N[C@@H]([C@@H](C)O)C(=O)N1)[C@@H](C)O)C(=O)N[C@@H](CC(C)C)C(=O)N[C@@H](CO)C(=O)N[C@@H](CCCNC(=N)N)C(=O)N[C@@H](CO)C(=O)NCC(=O)NCC(=O)N[C@H](C(=O)N[C@H](C(=O)N[C@@H](CCCCN)C(=O)N[C@@H](CC(N)=O)C(=O)N[C@@H](CC(N)=O)C(=O)N[C@@H](Cc1ccccc1)C(=O)N[C@H](C(=O)N1CCC[C@H]1C(=O)N[C@H](C(=O)N[C@@H](CC(N)=O)C(=O)N[C@H](C(=O)NCC(=O)N[C@@H](CO)C(=O)N[C@@H](CCCCN)C(=O)N[C@@H](C)C(=O)N[C@@H](Cc1ccccc1)C(N)=O)C(C)C)[C@@H](C)O)C(C)C)C(C)C)C(C)C
Emax (% CGRP), cAMP production in Cos 7 cells with the AMY (1(a)) receptor [5]: 143 % CGRP
pEC50, cAMP production in Cos 7 cells with the AMY (1(a)) receptor [5]: 8.97
pKi [3]: 9.42

More lines, now with the values ahead:

AMY1(a) receptor-stimulated cAMP Emax (% CGRP) CGRP analogue (AMY1(a) receptor; n = 3–6): 161 ± 45 % CGRP
AMY1(a) receptor-stimulated cAMP Emax (% CGRP) CGRP analogue (AMY1(a) receptor; n = 3–6, listed as [Ala^6]): 42 ± 11 % CGRP
AMY1(a) receptor-stimulated cAMP Emax (% CGRP) CGRP analogue (AMY1(a) receptor; n = 3–6, listed as [Ala^8]): 143 ± 11 % CGRP
AMY1(a) receptor-stimulated cAMP Emax (% CGRP) CGRP analogue (AMY1(a) receptor; n = 3–6, listed as [Ala^9]): 89 ± 9 % CGRP
EC50 (CGRP receptor [1]; AlphaScreen, second SK-N-MC clone, n = 3–4, read-out: pEC50, cAMP, control experiments for cross-compatibility of the two SK-N-MC cell clones (converted)): 26.3 nM and 40.7 nM
cAMP (SK-N-MC) Emax (% CGRP) CGRP analogue (CGRP receptor [1]): 100 ± 11 % CGRP
cAMP (SK-N-MC) Emax (% CGRP) CGRP analogue (CGRP receptor [1]; listed as [Ala^6]): 72 ± 12 % CGRP
cAMP (SK-N-MC) Emax (% CGRP) CGRP analogue (CGRP receptor [1]; listed as [Ala^8]): 104 ± 8 % CGRP
cAMP (SK-N-MC) Emax (% CGRP) CGRP analogue (CGRP receptor [1]; listed as [Ala^9]): 103 ± 13 % CGRP
β-Arrestin (CHO-K1) Emax (% CGRP) CGRP analogue (CGRP receptor [2]): 73 ± 3 % CGRP
β-Arrestin (CHO-K1) Emax (% CGRP) CGRP analogue (CGRP receptor [2]; listed as [Ala^6]): 43 ± 2.0 % CGRP
β-Arrestin (CHO-K1) Emax (% CGRP) CGRP analogue (CGRP receptor [2]; listed as [Ala^8]): 81 ± 3 % CGRP
β-Arrestin (CHO-K1) Emax (% CGRP) CGRP analogue (CGRP receptor [2]; listed as [Ala^9]): 64 ± 3 % CGRP
reduction of Emax, β-arrestin 2 translocation (CGRP receptor [2]; listed as [Ala^6]-CGRP): ~60%
reduction of Emax, β-arrestin 2 translocation (CGRP receptor [2]; listed as [Ala^8]-CGRP): 20%
Molecule: CC(C)C[C@H](NC(=O)CNC(=O)[C@H](C)NC(=O)[C@H](CC(C)C)NC(=O)[C@H](CCCNC(=N)N)NC(=O)[C@H](Cc1c[nH]cn1)NC(=O)[C@@H](NC(=O)[C@@H](NC(=O)[C@@H]1CSSC[C@H](NC(=O)[C@H](C)N)C(=O)N[C@@H](CC(=O)O)C(=O)N[C@@H](C)C(=O)N[C@@H](C)C(=O)N[C@@H]([C@@H](C)O)C(=O)N1)C(C)C)[C@@H](C)O)C(=O)N[C@@H](CC(C)C)C(=O)N[C@@H](CO)C(=O)N[C@@H](CCCNC(=N)N)C(=O)N[C@@H](CO)C(=O)NCC(=O)NCC(=O)N[C@H](C(=O)N[C@H](C(=O)N[C@@H](CCCCN)C(=O)N[C@@H](CC(N)=O)C(=O)N[C@@H](CC(N)=O)C(=O)N[C@@H](Cc1ccccc1)C(=O)N[C@H](C(=O)N1CCC[C@H]1C(=O)N[C@H](C(=O)N[C@@H](CC(N)=O)C(=O)N[C@H](C(=O)NCC(=O)N[C@@H](CO)C(=O)N[C@@H](CCCCN)C(=O)N[C@@H](C)C(=O)N[C@@H](Cc1ccccc1)C(N)=O)C(C)C)[C@@H](C)O)C(C)C)C(C)C)C(C)C [[Ala^4]]

pKi [3]: 9.33
B1: [Cys^6]-CGRP (peptide)
chain: ACDTACCVTHRLAGLLSRSGGVVKNNFVPTNVGSKAF-NH2
modifications: disulfide 2-7; also: Cys6 Acm protected, removal not given here

Emax (% CGRP), cAMP production in SK-N-MC cells [4]: 71 % CGRP
Emax (% CGRP), β-arrestin 2 translocation in CHO-K1 cells expressing the human CGRP receptor [4]: 60 % CGRP
pEC50, cAMP production in SK-N-MC cells [4]: 7.7
pEC50, β-arrestin 2 translocation in CHO-K1 cells expressing the human CGRP receptor [4]: 8.58
pKi [3]: 9.55
B4: [Cys^1]-CGRP (peptide)
chain: CCDTATCVTHRLAGLLSRSGGVVKNNFVPTNVGSKAF-NH2
modifications: disulfide 2-7; also: Cys1 Acm protected, removal not given here

pKi [3]: 7.76
B6: [Lys^6]-CGRP (peptide)
chain: ACDTAKCVTHRLAGLLSRSGGVVKNNFVPTNVGSKAF-NH2
modifications: disulfide 2-7
